From publication PMC8458794 (Protein & Cell, 2021)

B1: XG014 monoclonal antibody (IgG) (antibody, V domains shown)
VH: EVQLVQSGAEVKKPGESLKISCKGSGYSFSNYWIGWVRHMPGKGLEWMGIIYPGDSDTRYSPSFQGQVTISVDTSISTAYLQWSSLKASDTAMYYCTRHQYGYNYGYFYYYIDVWGKGTTVTVSS
VL: QSVLTQPPSVSAAPGQKVTISCSGSSSNIGNNPVSWYRQVPGTAPKLLIYDNNKRPSGIPDRFSGSKSGASATLGITGLQTGDEADYYCGTWHTSLSSGVFGGGTKLTVL
B2: XG005 monoclonal antibody (IgG) (antibody, V domains shown)
VH: QVTLRESGPTLVKPKQTLTLTCTFSGFSLSTPGGGVGWIRQPPGKALEWLALIYWDDDKRYSPSLKSSLTITKDTSKNQVVLTMTNMDPVDTATYYCARLTAADTIFDCWGQGTLVTVSS
VL: QSALTQPASVSGSPGLSITISCTATSSDVGAYNYVSWYQQHPGQAPKLMIYDVSKRPSGVSNRFSGSKSANTASLTISGLQAEDEADYYCSSYTTTSVVFGGGTKLTVL

Key:
[1] = biological target: T1, Avi-tagged SARS-CoV-2 RBD, biotinylated (Severe acute respiratory syndrome …, UniProt P0DTC2, biotin (BirA biotinylation of the Avi tag)); assay: BLI; conditions: both partners purified
T1 construct: also called biotinylated RBD protein of SARS-CoV-2

[2] = biological target: recombinant S-ECD of SARS-CoV (Severe acute respiratory syndrome …, UniProt P59594); assay: cell-based or functional assay
[3] = biological target: recombinant SARS-CoV-2 RBD protein (wild type) (SARS-CoV-2, UniProt P0DTC2); assay: ELISA; conditions: both partners purified

Binder	Kd [1]	IC50 of neutralisation of SARS-CoV pseudovirus in Huh-7 cells [2]	binding result [3]
B1	< 1 pM	0.016 µg/mL	–
B2	–	–	binds
